Data on 6 molecules can be found in PMC3915903 (Cell Research, 2013).

B1: Human PTPA, wild-type (natural protein)
chain: MAEGERQPPPDSSEEAPPATQNFIIPKKEIHTVPDMGKWKRSQAYADYIGFILTLNEGVKGKKLTFEYRVSEAIEKLVALLNTLDRWIDETPPVDQPSRFGNKAYRTWYAKLDEEAENLVATVVPTHLAAAVPEVAVYLKESVGNSTRIDYGTGHEAAFAAFLCCLCKIGVLRVDDQIAIVFKVFNRYLEVMRKLQKTYRMEPAGSQGVWGLDDFQFLPFIWGSSQLIDHPYLEPRHFVDEKAVNENHKDYMFLECILFITEMKTGPFAEHSNQLWNISAVPSWSKVNQGLIRMYKAECLEKFPVIQHFKFGSLLPIHPVTSG
B2: PTPA V281A (natural protein)
chain: B1 chain with V281A
B3: PTPA V209D (natural protein)
chain: B1 chain with V209D
B4: PTPA F100D (natural protein)
chain: B1 chain with F100D
B5: PTPA M294K (natural protein)
chain: B1 chain with M294K
B6: PTPA R293E (natural protein)
chain: B1 chain with R293E

Changes are numbered by the printed parent chain. Numbers in names are those of the source.

This experiment deals with GST-tagged PP2A core enzyme (AC heterodimer) (human, UniProt P30153;P67775). The experiment in a line: pull-down.
GST-tagged PP2A core enzyme (AC heterodimer), sequence (P30153 whole entry, chain 1 of 2): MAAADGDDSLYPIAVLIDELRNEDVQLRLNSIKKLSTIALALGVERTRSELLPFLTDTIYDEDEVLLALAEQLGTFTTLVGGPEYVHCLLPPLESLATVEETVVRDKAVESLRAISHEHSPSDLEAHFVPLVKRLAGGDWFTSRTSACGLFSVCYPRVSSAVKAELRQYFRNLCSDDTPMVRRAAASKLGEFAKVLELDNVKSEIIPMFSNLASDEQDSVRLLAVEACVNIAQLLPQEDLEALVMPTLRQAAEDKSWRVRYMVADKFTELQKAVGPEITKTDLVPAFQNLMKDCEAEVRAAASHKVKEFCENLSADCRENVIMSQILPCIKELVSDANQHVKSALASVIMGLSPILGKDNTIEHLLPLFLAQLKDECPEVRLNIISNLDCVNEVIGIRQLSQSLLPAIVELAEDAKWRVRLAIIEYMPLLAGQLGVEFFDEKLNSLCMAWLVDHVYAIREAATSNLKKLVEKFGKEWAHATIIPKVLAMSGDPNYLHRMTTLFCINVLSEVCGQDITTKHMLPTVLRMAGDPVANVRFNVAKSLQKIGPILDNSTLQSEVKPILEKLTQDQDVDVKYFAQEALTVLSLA
GST-tagged PP2A core enzyme (AC heterodimer), sequence (P67775 whole entry, chain 2 of 2): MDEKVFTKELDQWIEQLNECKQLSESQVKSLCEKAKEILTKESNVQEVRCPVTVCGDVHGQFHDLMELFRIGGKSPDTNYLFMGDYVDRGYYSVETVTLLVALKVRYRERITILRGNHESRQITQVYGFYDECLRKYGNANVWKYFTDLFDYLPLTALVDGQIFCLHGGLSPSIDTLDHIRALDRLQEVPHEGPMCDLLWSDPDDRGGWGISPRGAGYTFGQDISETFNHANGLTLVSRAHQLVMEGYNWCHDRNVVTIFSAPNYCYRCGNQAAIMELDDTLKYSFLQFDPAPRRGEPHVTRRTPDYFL
Turning to B1, the binding result is “binds”.
For B2 the value was “binds”.
For B3 the value was “binds”.
For B4 the value was “binds”; for B5, “binds”; for B6, “binds”.
